Measured values as given in US20030044847A1, “Methods for anlyzing interactions between proteins in live and intact cells” (priority 2001, published 2003).

T1: IFN-γ receptor complex (IFN-γR1/EBFP and IFN-γR2/GFP) (Homo sapiens, UniProt P15260)
T1 construct: EBFP (enhanced blue fluorescent protein); expressed in transfected cells; host or cells: COS-1
T1 sequence (P15260 18-489): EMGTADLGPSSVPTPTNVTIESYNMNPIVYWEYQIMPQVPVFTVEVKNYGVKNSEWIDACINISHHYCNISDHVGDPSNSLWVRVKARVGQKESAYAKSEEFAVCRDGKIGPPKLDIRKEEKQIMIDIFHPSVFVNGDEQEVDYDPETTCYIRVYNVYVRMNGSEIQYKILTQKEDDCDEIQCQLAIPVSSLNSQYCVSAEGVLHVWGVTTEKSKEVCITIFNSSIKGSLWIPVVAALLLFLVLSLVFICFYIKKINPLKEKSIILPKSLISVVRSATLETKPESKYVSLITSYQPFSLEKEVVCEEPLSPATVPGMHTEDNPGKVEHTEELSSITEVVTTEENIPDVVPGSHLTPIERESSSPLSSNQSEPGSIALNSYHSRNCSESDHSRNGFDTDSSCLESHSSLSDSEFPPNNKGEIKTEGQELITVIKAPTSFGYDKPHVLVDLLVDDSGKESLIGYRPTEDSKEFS

T2: IFN-γR1/EBFP and IL-10R2/GFP (Homo sapiens, UniProt P15260)
T2 construct: expressed in transfected cells; host or cells: COS-1
T2 sequence (P15260 18-489): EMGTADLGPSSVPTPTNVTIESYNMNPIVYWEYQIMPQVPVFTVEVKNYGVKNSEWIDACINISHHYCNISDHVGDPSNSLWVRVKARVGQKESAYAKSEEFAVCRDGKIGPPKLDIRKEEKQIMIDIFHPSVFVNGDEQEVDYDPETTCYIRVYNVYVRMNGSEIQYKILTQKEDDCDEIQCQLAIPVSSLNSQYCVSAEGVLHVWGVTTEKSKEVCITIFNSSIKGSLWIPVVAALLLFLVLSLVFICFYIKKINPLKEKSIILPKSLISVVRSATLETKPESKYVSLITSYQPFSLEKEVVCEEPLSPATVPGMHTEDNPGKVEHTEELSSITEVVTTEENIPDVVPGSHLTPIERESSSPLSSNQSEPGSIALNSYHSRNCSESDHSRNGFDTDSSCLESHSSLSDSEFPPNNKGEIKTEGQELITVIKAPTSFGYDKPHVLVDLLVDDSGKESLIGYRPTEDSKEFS

T3: IFN-γR2/EBFP, IFN-γR2/GFP and IFN-γR1 chains (Homo sapiens, UniProt P15260)
T3 construct: expressed in transfected cells; host or cells: COS-1
T3 sequence (P15260 18-489): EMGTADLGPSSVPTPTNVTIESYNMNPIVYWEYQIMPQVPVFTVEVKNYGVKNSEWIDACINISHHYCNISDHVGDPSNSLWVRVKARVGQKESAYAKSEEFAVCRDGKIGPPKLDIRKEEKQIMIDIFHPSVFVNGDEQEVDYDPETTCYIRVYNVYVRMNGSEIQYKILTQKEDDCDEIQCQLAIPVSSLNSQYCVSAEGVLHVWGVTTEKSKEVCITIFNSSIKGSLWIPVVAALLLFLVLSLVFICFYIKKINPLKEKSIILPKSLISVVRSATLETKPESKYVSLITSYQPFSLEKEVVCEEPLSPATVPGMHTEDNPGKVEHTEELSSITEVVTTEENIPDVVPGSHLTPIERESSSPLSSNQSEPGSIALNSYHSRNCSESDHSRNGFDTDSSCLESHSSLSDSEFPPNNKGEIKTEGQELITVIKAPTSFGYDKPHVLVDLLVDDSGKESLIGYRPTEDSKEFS


Assays:
[1] = test system: IFN-γR2/EBFP and IFN-γR2/GFP; experiment: FRET between IFN-γR2/EBFP and IFN-γR2/GFP in COS-1 cells without IFN-γR1 chain; assay type: cell-based, human; conditions: cells expressing only IFN-γR2 chains, no IFN-γR1 chain; FIG. 9 left panels
Source text: (§1) FIG. 9 Fluorescence transfer between the FL-IFN-γR2/GFP and FL-IFN-γR2/EBFP chains. Both FL-IFN-γR2/GFP and FL-IFN-γR2/EBFP were transfected into COS-1 cells in the absence (left panels) or presence (right panels) of the unlabeled IFN-γR1 chain. Spectra were taken in the presence and absence of IFN-γ.
(§2) Construction of Vectors to Measure FRET in Cells and Transfections. As noted above, green and blue fluorescent proteins (GFP and BFP) were discovered and developed by a number of groups that enabled these fluorescent protein to be seen and localized in cells; and several groups have begun to use FRET to study the interactions of proteins in cells. In our studies, the IFN-γ receptor complex (FIG. 1) was used as the model system to evaluate the ability of FRET to provide insight into the structure of the receptor and to determine the molecular dynamics after attachment of the ligand IFN-γ to the receptor. In order to carry out these studies, IFN-γR1 and IFN-γR2 chains with BFP (or EBFP) and GFP fused to the carboxyl termini of their intracellular domains were constructed (FIG. 2, top). By fusing the DNA encoding the blue fluorescent protein (BFP) to the DNA encoding the carboxyl terminus of the IFN-γR1 chain and by fusing the DNA encoding GFP to the DNA encoding the carboxyl terminus of the IFN-γR2 chain, the cells produce IFN-γR11/BFP and IFN-γR2/GFP. […]

[2] = test system: Chinese hamster ovary (CHO) q3 cells; experiment: MHC class I antigen induction in CHO q3 cells transfected with human receptor chains; assay type: cell-based; conditions: CHO q3 cells with human receptor chains with or without GFP and EBFP; FIG. 3
Source text: The human receptor chains (IFN-γR1 and FL-IFN-γR2) without fluorescent proteins (left panel) and those with the fluorescent proteins (IFN-γR1/EBFP and FL-IFN-γR2/GFP) (right panel) were transfected into Chinese hamster ovary (CHO) q3 cells and MHC class I antigen induction measured in response to hamster and human IFN-γ. In the absence of the human receptor chains, Hu-IFN-γ has no effect on CHO cells (78, 87, 98). […] The CHO q3 cells were derived as follows. Hamster UCH-12 cells containing a stable translocation of human chromosome 3q were obtained from Carol Jones and David Patterson. UCH-12 cells were transfected with plasmid pJYI50R1.1 that encodes the intact HLAB7 gene (101) and the resulting cells designated q3. […] The stably transfected population of q3 cells was grown in F12 media supplemented with 10% FBS without selecting antibiotics. […] After three rounds of selection, individual clones were isolated by limiting dilution and amplified. […] MHC class I antigen induction in response to IFN-γ was performed as described (93).
Stable transformants were made in the CHO-derived cell line q3 by the Lipofectin method and limiting dilution clonal isolation.
Images, Spectra and Activity of human IFN-γR2/GFP and IFN-γR1/BFP transfected into COS-1 cells. […]

[3] = test system: CHO cells; conditions: absence of the human receptor chains; cited from earlier work
[4] = molecular target: T1, IFN-γ receptor complex (IFN-γR1/EBFP and IFN-γR2/GFP); experiment: FRET between IFN-γR1/BFP (EBFP) and IFN-γR2/GFP (matched pair) in single live COS-1 cells; assay type: cell-based
Source text: A mammalian expression vector was used to express human interferon γ receptor chains one and two (IFN-γR1 and IFN-γR2) with blue- and green-fluorescent proteins (BFP and GFP) fused to the carboxyl terminus of the chains, respectively. A tandem vector was used so that both chains were expressed in COS-1 cells under the control of the EF-1 promoter. A single cell expressing both of these chains was used to carry out the experiment to examine the effect of human IFN-γ on the distance between the chains and to determine if the chains were associated prior to addition of ligand. This is accomplished by using FRET.
Construction of Vectors to Measure FRET in Cells and Transfections. As noted above, green and blue fluorescent proteins (GFP and BFP) were discovered and developed by a number of groups that enabled these fluorescent protein to be seen and localized in cells; and several groups have begun to use FRET to study the interactions of proteins in cells. In our studies, the IFN-γ receptor complex (FIG. 1) was used as the model system to evaluate the ability of FRET to provide insight into the structure of the receptor and to determine the molecular dynamics after attachment of the ligand IFN-γ to the receptor. […]

[5] = molecular target: T2, IFN-γR1/EBFP and IL-10R2/GFP; experiment: FRET between mismatched receptor pair IFN-γR1/EBFP and IL-10R2/GFP in COS-1 cells; assay type: cell-based; conditions: two-photon excitation at 760 nm; FIG. 7
Source text: as §2, with “IFN-γR2/GFP. In this way, the BFP and GFP were fused to the intracellular domains of IFN-γR1 and IFN-γR2, respectively (FIG. 2), to monitor interactions among these two receptor chains in intact cells-with and-without IFN-γ treatment.” for “IFN-γR2/GFP.”

[6] = molecular target: T3, IFN-γR2/EBFP, IFN-γR2/GFP and IFN-γR1 chains; experiment: FRET between IFN-γR2/EBFP and IFN-γR2/GFP in COS-1 cells with unlabeled IFN-γR1 chain; assay type: cell-based; conditions: cells expressing IFN-γR2/EBFP, FIG. 9 right panel
Source text: as §1, §2

effect on the FRET of the matched receptor pair ([4]; IFN-γ 3500 units/ml added to medium, two-photon excitation at 760 nm, FIG. 8)	FRET signal after treatment of cells with IFN-γ ([4]; single COS-1 cell expressing IFN-γR1 and IFN-γR2 fused to BFP and GFP, excited at 760 nm, FIGS. 12 and 13)	effect on the fluorescence spectrum of the mismatched pair [5]	change in FRET spectrum in the presence of IFN-γ [6]	Molecule	change in FRET spectrum in the presence of IFN-γ [1]	MHC class I antigen induction [2]	effect on CHO cells [3]
–	–	–	–	IFN-γ: protein secreted by lymphocytes, specifically T-cells and NK-cells; ligand of the IFN-γ receptor complex	no change in the spectrum	as effective as that of hamster IFN-γ	no effect
major reduction in the FRET	almost completely abolished	did not affect the spectrum	large change in the spectrum	IFN-γ: protein secreted by lymphocytes, specifically T-cells and NK-cells; ligand of the IFN-γ receptor complex (protein, UniProt P01579 24-161, looked up) Interferon gamma: QDPYVKEAENLKKYFNAGHSDVADNGTLFLGILKNWKEESDRKIMQSQIVSFYFKLFKNFKDDQSIQKSVETIKEDMNVKFFNSNKKKRDDFEKLTNYSVTDLNVQRKAIHELIQVMAELSPAAKTGKRKRSQMLFRG	–	–	–
